Reference: the nanobody polyreactivity screen of Harvey et al. (2022)

experiment: yeast display, Sf9 membrane polyspecificity reagent, FACS + sequencing; frameworks hold sequencing errors
Summary of the method: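 Using colony PCR, genes from sorted yeast display clones were amplified, then sequenced on MiSeq at 2 × 250 and filtered by CDR length. The clones had been stained with 10% biotinylated, detergent-solubilized Sf9 membrane reagent for 1 hour at 4 °C and sorted by FACS into low and high (top ~1%) gates on anti-HA and streptavidin fluorescence. Polyreactivity labels come from the gate of origin.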

Sequence | polyreactivity (PSR sort gate)
QVQLVESGGGLVQAGGSLRLSCAASGFTLYYYDKGWYRQSPGKERELVAAISYSGGTTYYADSVKGRFTISRDNAKNTVYLQMNSLNPDDTAVYYCAAEVGGYWADEYLGYDYWGLGTQVTVSS | low polyreactivity
QVQLVESGGGLVQAGGSLRLSCAASGGTFAEYVMGRYRQAPGKERELVAAIDWSGGSTYYADSVKGRFTISRDNAKNTVYFQMNSLKPEDTALYYCAKGPGYGFYKLMSYDSWGQGTQVTVSS | low polyreactivity
QDQLVDSGGGLVQAGGSLRLSCAASGRTFTVYAMGWYRQAPGKERELVAAISGSSGSTDYADSVKGRFTISRDNAKNTVYLQMNSLKPEDTAVYYCAKASSATRYVQLRQDYDYWGQGTQVTVSS | low polyreactivity
QVQLVESGGGLVQAGGSLRLSCAASGSIFLEYTMGWYRQAPGKERELVASISWGGGSTYYADSVKGRFTISRDNAKNTVFLQMNSLKPEDTAVYYCNKVGGDPVRGGYDYWGQGTQVTVSS | low polyreactivity
QVQLVESGGGLVQAGGRLRLSCAASGRTFPLYAMGWYRQAPGKERELVAAISSSGGNTYYADSVKGRFTISRDNAKNTVYLQMNSLIPEETAVYYCNADVSTNSDRLQLDYWGQGTQVTVSS | low polyreactivity
QVQLVESGGGLVQAGGSLSLSCAASGIFSRYAMGWYRQAPGKERELVAAISSGGSTYYAESVKGRFTISRDNAKNTVYLQMNSLKPEDTAVYYCSVKQRDKFAGGRNDYWGQGTQVTVSS | high polyreactivity
QVQLVESGGGLVQAGGSLRLSCAASGRTFRAYAMGWYRQAPGKERELVAAITSGGSTKYADSVKGRFTITRDNAKNTVYLLMNSLKPEDTAVYYCAAVWYGYYSFDTYGYWGQGTQVTVSS | high polyreactivity
QVQLVESGGGLVQAGGSLRLSCAASGGIFYYYTMGWYRQAPGKERELVAAINWSGGSTYYADSVKGRFTISRDNAKNTVYLQMNSLKPEDTAVYYCNAVYRHPVTYGYWGQGTQVTVSS | high polyreactivity
QVQLVESGGGLVQAGGSLRLSCAASGRTFSYYAMGWYIQAPGKERELVAAITWSGASTYYADSVKGRFTISRDNAKNTVYLQMNSLKPEDTAVYYCNAGWDSGIVQSDETVYKYDYWGQGTQVTVSS | low polyreactivity
QVQLVESGGGLVQAGGSLRLSSAASGNIFSDYAMGWNIQAPGKERELVAAISSGGNTNYADSVKGRFTISRDNAKNTVYLQMNSLKPEDTAVYYCAAVYNTTYTLLPEYIYDYWGHGTQVTVSS | low polyreactivity
QVQLVESGGGLVQAGGSLRLSCAASGFIFWLNAMGWYRQAPGKERELVAASSIGGRTNYADSVKGRFTISRDNAKNTVYLQMNSLKPDDTAVYYCNKDYRSVYKGRGFDYCGQGTQVTVSS | low polyreactivity
QVQLVESGGGLVQAGGSLRLSCAASGSTFYYYAMGWYRQAPGKERELVAVIRDSDGSTDYADSVKGRFTISRDKAKNTVYLQMNSLKPEDTAVYYCAATNVRGVYYWGQGTQVTVSS | high polyreactivity
QVQLVESGGGLVQAGGSLRLSCAASGITFHKYAMGWYRQAPGKERELVAAISSGGGTYYADSVKGRFTISRDNAKNTVYLQMNSLKPEDTAVYYCNADIEWLWVRYDYWGQGTQVTVSS | high polyreactivity
QVQLVESGVGLVQAGGSLRLSCAASGRTFGYYAMGWYRLAPGKERELVAAISSGGSTNYADSVKGRFTISRDNAKNTVYLQMNSLKPEDTAVYYCAAKAWYYPGRRNYYQYYYWGQGTQVTVSS | high polyreactivity
QVQLVESGGGLVQAGGSLRLSCAASGRIFGYYTMGWYRQAPGKERELVAAITRDGGSTYYADSVKGRFTISRDNAKNTVYLQMNSLKPEDTAVDYCTAASQSRYYYWGQGTQVTVSS | high polyreactivity
QVQLVESRGGLVQAGGSLRLSCAASGGTFSLNAMGWYRQAPGKERELVAANSKRSSTTYYADSVKGRFTISRDNAKNTVYLQMNSLKPEDTAVYYCAARVLRSRKPGPGYDYWGQGTQVTVSS | high polyreactivity
QVQLVESGGGLVQAGGSLRLSCAASGFTFGKYARGWYRQAPGKERELVAAISRSGGSTYYADSVKGRFTISRDNAKNTVYLQMNSLKPEDTAVYYCAAYHPIQEYDYWGQGTQVTVSS | high polyreactivity
QVQLVESGGGLVQAGGSLRLSCAASGRIFALYAMGGYRQAPGKERELVAAISIRAGSTYYADSAKGRFTISRDNAKNTVYLQMNSLKPEDTAVYYCATKGWVSTSYYYRPYGYWGQGTQVTVSS | high polyreactivity
QVQLVESGGGLVQAGGSLRLSCAASGRIFYRYAMGWYRQAPGKERELVATITSGGRTKYADSVTGRFTIARDNAKNTVYLQMNSLKPEDTAVYYCNAYVYSGYSIRDYWGQGTQVTVSS | high polyreactivity
QVQIVESGVGLVQAGGSLSLSCAASGIIIHSNAMGWYRQAPGKERELVAAITSSGGSKYYADSVKGRFTISRDNAKNTVYLQMNSLKPVDTAVYYCAVVTILVYRYVVPYDYWGHGTQVTVSS | high polyreactivity

Sequence | polyreactivity (PSR sort gate)
QVQLVESGGGLVQAGGSLRLSCAASGRIFYVYAMGWYIKAPGKERELVAAITSSGGRTNYADSVKGRFTISRDNAKNTVYLQMNSLKPEDTAVYYCAAAYPWGDYGVSDYDYWGQGTQVTVSS | low polyreactivity
QVQLVESGGGLVQAGGSLRLSCAASGFIFAYYAMGWYRQAPGKERELVAAISSRAGRTYYADSVKGRFTISRDNAKNTVYLQMNSLKPEYTAVYYWAAPTSSSGRYHRYYYWGQGTQVTVSS | high polyreactivity
PVQLVESGGGLVQAGGSLRLSFAASGRTFWVYAMGWYRQAPGKERELVAAINRRGGGTYYADSVKGRFTISRDNAKNTVYLQMNSLKPEDTPVYYCAAVTRNQGSYRYYYWGQGTQVTVSS | high polyreactivity
QVQLVESGGGLVHAGGSLRLSCAASGRLFYPYAMGWYRQAPGKERELVAAITYITGSTYADSVKGRFTISRDNAKNTVYLQMNSLKPEDTAVYYCAADYESGDYWGQGTQVTVSS | low polyreactivity
QVQLVESGVGLVQAGGSLRLSCAASGSIFQSYDMGWYRQAPGKERELVAAISWSGSTTYYADSVKGRFTISRDNAKNTVYLQMNSLKPEDTAVYYCAVDSNPPDWWAVIYGFWGQGTQVTVSS | low polyreactivity
QVQLVESGGGLVQAGGSLRLSCAASGITFRRYALGWYRQAPGKERELVAAITSGGGTYYADSVKGRFTISRDNAKNTVYLQMNSLKPEDTAVYYCNTYYHWLTMDYWGQGTQVTVSS | high polyreactivity
QVQLVESGGGLVQAGGSLRLSCAASGSIFDEYAMGWYRQAPGKERELVAVISTSGSTYYADSVKGRFTISRDNAKNPVYLQMNCLKPEDTGVYSSNAAIYTSSYRSYDYWGQGTQVTVTS | low polyreactivity
QVQLVESGGGLVQAGGSLRLSCAASGSTFYIYDMGWYRQAPGKEREFVAAIDFSGSSTYADSVKGRFTISRDNAKNTVYFQINSLKPDDSAVFDCAAYQIYQYDGPYVYWGQGTQVTVSS | low polyreactivity
QVQLVESGRCLVQDGRSLRLSCAASGRTFYGNAMGWYRQAPAKERELVAAISRSGGRTYYADSVKGRFTISRDNAKNTVYLEMISLKPEDTAVYYFASEIRFWYGYYYWGQGTQVTVSS | high polyreactivity
QVQLVESGGGLVQAGGTLRLSWAASGSNFGFYTMGWYRLAPGKERELVAAITWSDSSTYADSVKGRYTISRDNAKNTVYLQMNSLKPEDTAVYYCNADTTTVEYYPFHYYTYDYWGQGTQVTVSS | low polyreactivity
QVQLVESGGGLVQAGGSLRLSCAASGSISRQYALGWYRQAPGTERELVAAITVRGGSTYYADSVKGRFTISRDNAKNTVYLQMNSLKPEDTAVYYCAKYTRYSASYDYWGQGTQVTVSS | high polyreactivity
QVQLVESGVGLVQAGGSLRLSCDATGSILGINVMGWYRQAPGKEREVVAAISRRGGSTYYADSVKGRFTISRDNSKNTVYLQMNSLKPEDTAVYYCAAGTSYYYGSYRFYYWGQGTQVTVSS | high polyreactivity
QVQLVESGGGLVQAGGSLRLSSAASGRIFYYNAMGWYSQAPGKERELVAAITRGGSTYYADSVKGRFTISRDNAKNTVYLQMNSLKPEDTAVYYCAAYLDYWSYLNGQYDYWGQGTQVTVSS | high polyreactivity
QVQLVESGGGLVQAGGSLRLSCAASGSNISQNAMGWYRQAPGKERELVASITYSGGSTYYADSVKGRFTISRDNAKNTVYLQMNSLKPEVTAVYYCAADVRYSSRFYYWGQGTQVTVSS | high polyreactivity
QVQLVESGGGLVQAGGSLRLSCAASGSIFFSNAMGWYRQAPGKERELVAAITSTGGSTYYADSVKGRFTISRDNAKNTVDLQMNSLKPEDTAVYYCAAASRRGYYYWGQGTQVTVSS | high polyreactivity
QVQLVESGAGLVQAGGSLRLSCAASGRTFFVNAMGWYRQAPGKERELVATITFSGDSTYYADSVKGRFTISRDNAKNTVFLQMNSLKPEDTAVYYCAARTGYGYTRYEYWGQGTQVTVSS | high polyreactivity
QVQLVESGGGLVQAGGSLRLSCAASGSIFRPYAMGWYRQAPGKERELVAAISDSGGSTYYADSVKGRFTISRDNAKNTVYLQMNSLKPEDTAVYYCNAYSVWYYLASVLEVDYWGQGTQVTVSS | low polyreactivity
QVQLVESGGGLDQAGVSLRLSSAASGSTFVRNAMGCYRQAPGKEREWVAAINIGGSTYYADSVKGRFTISRDNAKNTVYLQMNSLKPEDTAVYYFAARIKYRYDWGQGTQVTVSS | low polyreactivity
QVQLVESGGGLVQAGGSLRLSCAASGGTFLYYAMGWYRQAPGKERELVAAISSSTGSTNYADSVKGRFTISRDNAKNTVYLQMNSLKPEDTAVYYCAAAPHRHSWYYTRHPYFCMDYWGQGTQVTVSS | low polyreactivity
QVQLVESGGGLVQAGGSLRLSCAASGFTFWYYTMGWYRQAPGKERELVAAITGRGGTTHYADSVKGRFTISRDNAKNTVYLQMNSLKPEDTAVYYCAARAYRPSLSVVRGGYWGQGTQVTVLS | high polyreactivity
